Target: anti-PcrV scFv conjugated with the mouse IgG1 hinge, CH2 and CH3 domains, scFv-m166-mFc (recombinant protein) (mouse)
Test: non-reducing SDS-PAGE with immunoblot

- stoichiometry N: 2
Substance: anti-PcrV scFv conjugated with the mouse IgG1 hinge, CH2 and CH3 domains, scFv-m166-mFc (recombinant protein) (Fc fusion)

From publication PMC13066097
